For experiment [1], the target named is T1, γc extracellular domain (UniProt P34902 23-263).
T1 sequence (looked up): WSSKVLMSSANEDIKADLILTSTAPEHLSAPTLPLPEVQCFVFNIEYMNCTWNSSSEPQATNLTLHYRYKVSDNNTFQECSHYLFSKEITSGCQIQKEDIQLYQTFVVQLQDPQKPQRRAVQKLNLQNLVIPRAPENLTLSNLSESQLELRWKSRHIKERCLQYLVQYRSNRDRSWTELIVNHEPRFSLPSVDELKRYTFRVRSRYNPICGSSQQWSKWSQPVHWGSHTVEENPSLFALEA
The experiment is described as follows: SPR.

In experiment [2] the target is T1, γc extracellular domain. Nature of the experiment: SPR. This is another data set of the same source.

Data on two molecules can be found in publication PMC7424196 (iScience, 2020).

Like-named read-outs stand apart in the source and are kept apart here.

B1: IL-2Rβ extracellular domain (domain or fragment, UniProt P16297 27-240, looked up)
chain: AVKNCSHLECFYNSRANVSCMWSHEEALNVTTCHVHAKSNLRHWNKTCELTLVRQASWACNLILGSFPESQSLTSVDLLDINVVCWEEKGWRRVKTCDFHPFDNLRLVAPHSLQVLHIDTQRCNISWKVSQVSHYIEPYLEFEARRRLLGHSWEDASVLSLKQRQQWLFLEMLIPSTSYEVQVRVKAQRNNTGTWSPWSQPLTFRTRPADPMKE
In the experiment with γc extracellular domain [1], B1 registered a Kd of 577 ± 40 µM.

B2: IL-7Rα extracellular domain (domain or fragment, UniProt P16872 21-239, looked up)
chain: ESGNAQDGDLEDADADDHSFWCHSQLEVDGSQHLLTCAFNDSDINTANLEFQICGALLRVKCLTLNKLQDIYFIKTSEFLLIGSSNICVKLGQKNLTCKNMAINTIVKAEAPSDLKVVYRKEANDFLVTFNAPHLKKKYLKKVKHDVAYRPARGESNWTHVSLFHTRTTIPQRKLRPKAMYEIKVRSIPHNDYFKGFWSEWSPSSTFETPEPKNQGGWD
In the experiment with γc extracellular domain [2], B2 returned a Kd of 37.3 ± 0.4 nM, a koff of 0.000221 s⁻¹ and a kon of 5930 M⁻¹ s⁻¹.
